Experimental data reported in publication PMC5048913.

Tests used:
Assay in all cases: split reporter
[1] = biological target: M2-dAZ-Yn (Yn-fused MDM2 deleted of the AZ domain) (UniProt Q00987)
[2] = biological target: M2-dIAZ-Yn (Yn-fused MDM2 deleted of the I1 and AZ domains) (UniProt Q00987)
[3] = biological target: Yn-fused MDM2, wild type (FLAG-tagged MDM2-Yn) (UniProt Q00987)

Chain of Yc-fused NS, wild type (Myc-tagged NS-Yc) (Q9BVP2 whole entry, the tested form may be a part): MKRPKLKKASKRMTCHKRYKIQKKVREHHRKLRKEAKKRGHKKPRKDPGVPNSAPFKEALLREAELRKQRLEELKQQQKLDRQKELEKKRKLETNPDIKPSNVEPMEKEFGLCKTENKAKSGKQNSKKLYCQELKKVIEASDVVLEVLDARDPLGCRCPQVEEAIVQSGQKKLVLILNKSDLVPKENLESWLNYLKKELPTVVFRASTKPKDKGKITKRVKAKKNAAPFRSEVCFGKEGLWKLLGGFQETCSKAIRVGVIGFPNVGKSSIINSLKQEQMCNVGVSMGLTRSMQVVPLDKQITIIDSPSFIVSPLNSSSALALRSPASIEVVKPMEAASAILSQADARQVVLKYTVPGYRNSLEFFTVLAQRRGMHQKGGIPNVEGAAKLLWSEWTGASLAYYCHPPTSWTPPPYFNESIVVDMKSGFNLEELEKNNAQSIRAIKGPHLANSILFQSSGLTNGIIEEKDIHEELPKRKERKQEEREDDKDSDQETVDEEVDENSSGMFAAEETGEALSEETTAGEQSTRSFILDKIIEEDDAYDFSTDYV
Chain of NS-GI-Yc (Yc-fused NS deleted of the BC and A domains) (Q9BVP2 116-464, stated change not applied): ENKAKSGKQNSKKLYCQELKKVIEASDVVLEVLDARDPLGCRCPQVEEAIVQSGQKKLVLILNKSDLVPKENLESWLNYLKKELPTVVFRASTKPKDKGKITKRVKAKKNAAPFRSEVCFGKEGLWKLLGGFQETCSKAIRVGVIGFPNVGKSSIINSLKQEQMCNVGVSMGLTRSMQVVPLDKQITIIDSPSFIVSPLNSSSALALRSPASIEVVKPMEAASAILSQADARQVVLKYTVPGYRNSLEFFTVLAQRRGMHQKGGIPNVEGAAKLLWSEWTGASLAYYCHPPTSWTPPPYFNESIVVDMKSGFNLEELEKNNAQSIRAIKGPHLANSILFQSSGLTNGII

Substance	BiFC efficiency (percent YFP+ cells in the CFP+ population) [1]	BiFC efficiency (percent YFP+ cells in the CFP+ population) [2]	BiFC efficiency (percent YFP+ cells in the CFP+ population) [3]
Yc-fused NS, wild type (Myc-tagged NS-Yc) (from UniProt Q9BVP2 1-549) (natural protein)	15%	9.4%	48.7%
NS-GI-Yc (Yc-fused NS deleted of the BC and A domains) (from UniProt Q9BVP2 116-464) (domain or fragment)			27.2%
